Assays:
Assay in all cases: EMSA
Details in all cases: EMSA: fluorescein-12 ssRNA incubated with MBP-tagged proteins, agarose gel; buffer, salt, pH and temperature not in the material
[1] = tested on: Pdd1p MIM14_FL (Tetrahymena (species not given))
[2] = tested on: Pdd1p MIM22+Ins6K_FL (Tetrahymena (species not given))
[3] = tested on: Pdd1p WT_FL (Tetrahymena (species not given))
[4] = tested on: Pdd1p WT_HNG1 (hinge region 1) (Tetrahymena (species not given))
[5] = tested on: Pdd1p WT_HNG2 (hinge region 2) (Tetrahymena (species not given))

## EGFP ssRNA
[1]
  Kd: 0.34 µM
[2]
  Kd: 0.347 µM
[3]
  Kd: 0.065 µM
[4]
  Kd: 0.13 µM
[5]
  Kd: > 0.63 µM

— publication PMC4695338
